Reference: patent US20240093191A1, “COMPOSITIONS AND METHODS FOR TREATING DISEASE ASSOCIATED WITH DUX4 OVEREXPRESSION” (RESEARCH INSTITUTE AT NATIONWIDE CHILDREN'S HOSPITAL, priority 2021, published 2024)

Experiments:
Format in all cases: cell-based, human
[1] = tested on: mir-675-5p; experiment: TaqMan QRT-PCR of mature mir-675-5p from transfected constructs in HEK293 cells
Description: (§1) RNA Extraction. RNA from HEK293 cells was extracted for Northern blot assay and QPCR. The miRVANA miRNA isolation kit (ThermoFisher Scientific) was used according to manufacturer's directions to extract total RNA encompassing small RNAs, such as miRNAs. To extract RNA from C57BL/6 skeletal muscles, cryopreserved muscles were crushed under suboptimal temperatures using liquid nitrogen and using mortar and pestle. Crushed muscles were then lysed using […] of miRVANA miRNA isolation kit lysis buffer, a TissueLyser and 1.0 mm zirconia beads (Biospec). Muscle was homogenized at 30 Hz for 30 sec with 10 sec rest. This was repeated 3 times.
(§2) TaqMan Gene Expression Assay. QRT-PCR was carried out to quantify the expression of pri-mir-675, mir-675-5p and mi405 using TaqMan probes (ThermoFisher Scientific). Experiments were started by eliminating genomic DNA from the RNA preparations, and then cDNA was generated using the High-Capacity cDNA Reverse Transcription Kit (Applied Biosystems) following manufacturer's instructions. Within the same cDNA reaction, 1×RT random hexamer primers were used to generate the cDNA for RPL13A, used as a reference gene, and for pri-mir-675. To generate the cDNA for mir-675, the RT mir-675 reverse primer provided by ThermoFisher Scientific was used. For mi405, the mi405 qPCR protocol was done as it was previously described [Wallace et al., Mol. Ther. Methods Clin. Dev. 8: 121-30 (2018)]. To quantify mir-675 and mi405 levels, RNA was extracted using the total RNA protocol for the mirVana miRNA Isolation Kit (Ambion) from HEK293 cells. cDNA was generated using the High-Capacity cDNA Reverse Transcription Kit (Applied Biosystems) using a mix of random hexamer primers and specific reverse primer for pri-mir-675 and mir-675-5p. For mi405, 200 nM of the stem-loop forming primer (5′-[…]-3′) (SEQ ID NO: 144) was also used for the RT step. A custom TaqMan assay (Applied Biosystems) including 1.5 μM of Forward primer (5′-[…]-3′) (SEQ ID NO: 145), 0.7 μM of Reverse primer (5′-GTGCAGGGTCCGAGGT-3′) (SEQ ID NO: 146), and 0.2 μM of mi405 probe (5′-6FAM-ATACGACGTCCAGGAT-3′) (SEQ ID NO: 147) was then run using the CFX Connect Real Time system apparatus (Bio-Rad). RPL13A (Mm02526700_g1; Applied Biosystems) served as the reference gene. The TaqMan gene expression assay consisted of using the TaqMan Gene Expression Master mix and TaqMan probes purchased from ThermoFisher Scientific. 1× of probe was mixed with 1× of the TaqMan Gene Expression Master mix (ThermoFisher Scientific), and with 20 ng of cDNA. The mir-675- and mi405-specific primers and probes were designed to quantify only the mir-675-5p and mi405 mature sequence (see TaqMan Gene Expression Master mix protocol).

[2] = tested on: pri-mir-675; experiment: TaqMan QRT-PCR of pri-mir-675 from transfected constructs in HEK293 cells; conditions: 24 h post-transfection
Description: as §1, §2

[3] = tested on: DUX4 mRNA; experiment: QPCR (SYBR green) of DUX4 mRNA in co-transfected HEK293 cells; conditions: 3 to 1 ratio with DUX4 construct, normalized to egfp, relative to milacZ
Experimental: H1.mir-675 construct was transfected in a 3 to 1 ratio with DUX4 construct in HEK293 cells, and collected RNA extracts 24 and 48h after transfection. Total RNA was prepared using the miRVANA isolation kit. DUX4 and egfp (used as the reference gene) mRNA levels were determined using the SYBR green master mix as described in materials and methods. All values were normalized to egfp, and were reported relative to milacZ treated samples. At 24 and 48h after transfection, DUX4 levels decreased by an average of 37±2% (P<0.0001, ANOVA, N=3) and 51±2% (P<0.0001, ANOVA, N=3), respectively. Results were reported as the average relative DUX4 expression±SEM of three replicates. […] When compared to the milacZ sample, mir-675-5p overexpressed levels were ˜2000-fold higher (P<0.0001, ANOVA, N=3). Results were reported as the average relative mir-675-5p expression (2^−ΔCq)±SEM of three replicates.

B1: H1.mir-675: commercially available H1 promoter mir-675 expression plasmid (SBI Biosciences) (nucleic acid)
DNA: GAACGCTGACGTCATCAACCCGCTCCAAGGAATCGCGGGCCCAGTGTCACTAGGCGGGAACACCCAGCGCGCGTGCGCCCTGGCAGGAAGATGGCTGTGAGGGACAGGGGAGTGGCGCCCTGCAATATTTGCATGTCGCTATGTGTTCTGGGAAATCACCATAAACGTGAAATGTCTTTGGATTTGGGAATCTTATAAGTTCTGTATGAGACCACCCCCCAGGGTCTGGTGCGGAGAGGGCCCACAGTGGACTTGGTGACGCTGTATGCCCTCACCGCTCAGCCCCTGGGGAATTCTTCGATTCTGCTTTTTT
- mir-675-5p levels compared to U6.mir-675 ([1]; 23 mer mature mir-675-5p, HEK293, 24 h post-transfection): 232±35%
- mir-675-5p overexpressed levels compared to milacZ sample ([1]; HEK293 co-transfected with CMV.DUX4-FL/CMV.eGFP): ~2000 fold
- pri-mir-675 levels compared to U6.mir-675 [2]: 320±43%
- decrease of DUX4 mRNA levels ([3]; 24 h): 37±2%
- decrease of DUX4 mRNA levels ([3]; 48 h): 51±2%
